One molecule from paper PMC7505563 can be followed below.

The target in this data set is T1, MatP, tag cleaved (Escherichia coli, UniProt P0A8N0 1-150).
T1 sequence: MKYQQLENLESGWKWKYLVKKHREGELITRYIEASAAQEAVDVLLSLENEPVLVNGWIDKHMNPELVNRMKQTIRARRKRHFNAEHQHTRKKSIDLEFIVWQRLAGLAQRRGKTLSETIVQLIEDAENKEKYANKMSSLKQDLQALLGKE
Briefly: crystal structure.

B1: matS 19mer (dsDNA)
DNA 1: TTCGTGACATTGTCACGAA
DNA 2: TTCGTGACAATGTCACGAA
For the molecule B1, the binding result was “binds”.
